Measured values published in patent EP4089107A1 (Cytoki Pharma ApS, dated 2022).
Substitutions are numbered along the chain they refer to. One block for each binder: values may come before it.

What was measured:
[1] = biological target: T1, human IL-22 receptor (human IL-22Ra and human IL-10Rb) expressed on BHK reporter cells (human, UniProt Q8N6P7 16-574; Q08334 20-325); assay: cell-based or functional assay
T1 sequence (looked up) 1: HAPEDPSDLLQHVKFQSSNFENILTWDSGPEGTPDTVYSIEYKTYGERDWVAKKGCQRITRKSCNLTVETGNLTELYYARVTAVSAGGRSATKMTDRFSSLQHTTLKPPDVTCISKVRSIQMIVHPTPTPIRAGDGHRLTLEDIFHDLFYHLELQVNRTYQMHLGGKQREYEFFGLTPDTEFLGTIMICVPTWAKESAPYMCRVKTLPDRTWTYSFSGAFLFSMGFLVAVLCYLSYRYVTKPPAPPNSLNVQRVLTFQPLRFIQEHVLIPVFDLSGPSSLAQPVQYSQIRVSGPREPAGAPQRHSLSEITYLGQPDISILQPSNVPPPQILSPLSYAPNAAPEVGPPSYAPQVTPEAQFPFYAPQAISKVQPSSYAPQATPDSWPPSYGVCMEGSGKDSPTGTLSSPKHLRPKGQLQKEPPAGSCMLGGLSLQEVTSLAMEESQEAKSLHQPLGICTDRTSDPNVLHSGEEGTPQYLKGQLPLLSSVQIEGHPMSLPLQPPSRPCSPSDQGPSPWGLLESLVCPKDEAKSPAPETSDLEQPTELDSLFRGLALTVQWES
T1 sequence (looked up) 2: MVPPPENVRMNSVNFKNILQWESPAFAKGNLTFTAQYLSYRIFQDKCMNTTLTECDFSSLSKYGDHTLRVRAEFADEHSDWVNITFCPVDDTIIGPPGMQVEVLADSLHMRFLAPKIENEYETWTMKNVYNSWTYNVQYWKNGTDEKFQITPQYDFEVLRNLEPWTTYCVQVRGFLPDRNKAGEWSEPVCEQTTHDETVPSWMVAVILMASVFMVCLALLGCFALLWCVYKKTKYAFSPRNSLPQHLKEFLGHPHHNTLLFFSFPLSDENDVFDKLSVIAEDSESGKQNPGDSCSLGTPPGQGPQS

[2] = biological target: T1, human IL-22 receptor (human IL-22Ra and …); assay: cell-based or functional assay; remark: listed apart in the source

EC50 in BHK cell reporter gene assay (luciferase with STAT3-induced promoter) [1]: 0.07 nM
B1: native mature human IL-22 (ligand)
chain: APISSHCRLDKSNFQQPYITNRTFMLAKEASLADNNTDVRLIGEKLFHGVSMSERCYLMKQVLNFTLEEVLFPQSDRFQPYMQEVVPFLARLSNRLSTCHIEGDDLHIQRNVQKLKDTVKKLGESGEIKAIGELDLLFMSLRNACI

fold reduction in potency compared to hIL-22, BHK cell assay with albumin present [2]: 5 fold
EC50 in BHK cell reporter gene assay (luciferase with STAT3-induced promoter) [1]: 0.36 nM
B2: Derivative 2 (ligand)
chain: B1 chain with N35Q, N64Q, R95C
modifications: C18 diacid covalently attached via linker γGlu-OEG-OEG-C2DA-Ac at residue 95C

fold reduction in potency compared to hIL-22, BHK cell assay with albumin present [2]: 3 fold
EC50 in BHK cell reporter gene assay (luciferase with STAT3-induced promoter) [1]: 0.23 nM
B3: Derivative 1 (ligand)
chain: B1 chain with N35Q, N64Q, L106C
modifications: C18 diacid covalently attached via linker γGlu-OEG-OEG-C2DA-Ac at residue 106C
